{
  "source": "paper PMC11964265",
  "about": "“Eating the brain - A multidisciplinary study provides new insights into the mechanisms underlying the cytopathogenicity of Naegleria fowleri” (PLOS Pathogens, 2025)",
  "proteins": {"B1": {"name": "Naegleria fowleri lysozyme (recombinant) (natural protein)", "chain": "MSSYYTKEQFFRALHQVESKGQLNPPDGDKGRAIGPLQIWEVYWKDSGIQESYQSVRKFEIAKKCVNRFMKRYAENEWGPTMTIDQVEKCARIHNGGPRGHLKPETDDYWERFKEALENLDDEEVVVVEENDNNDDDQDDNEEESKDHRELLKIGMSGADVEEIQQQLADLGYDLGSYGADGKFGKATQQAVMKFQQDHDLAVDGIVGKETRKALNLEKGEDDQEQQEVADDQQEDDDEQQQQQNKDQPQEQDEEETTNEVKEEEQNDDEHEDPQEEEEQQQEDEQEDPQEEQQEDEDQQEDNDEENDQQQEDDDDQEQQQEEEEQEDPQEEEEQQNDDDDQQDDMEEQQDGDDDNDDDDA", "notes": "Cloned into pET42b with NdeI/XhoI sites in the primers; Pentamer by analytical SEC only; also called Nf lysozyme; source: E. coli BL21(DE3), purified (Ni-NTA agarose, native conditions)"}},
  "target": "the molecule itself",
  "assay": "SEC; analytical size-exclusion chromatography, Superdex 200 Increase 10/300 GL, 20 mM Tris-HCl, 150 mM NaCl, pH 7.5; mass from calibration with Gel Filtration Standard (Bio-Rad)",
  "data": [
    {"protein": "B1", "values": [
      {"measurement": "stoichiometry N", "value": 5}
    ]}
  ]
}
